The values below come from patent publication US7799901B2, “Modulators of the function of FAS receptors and other proteins” (Yeda Research and Development Co. Ltd., priority 1995, dated 2010).

For one test, the target named is T1, FAS-IC (Homo sapiens, UniProt P25445).
T1 construct: the FAS-IC extends-from amino acid residues 175-319 of the intact FAS-R; expressed in transfected cells; host or cells: SFY526 yeast
T1 sequence (P25445 191-335): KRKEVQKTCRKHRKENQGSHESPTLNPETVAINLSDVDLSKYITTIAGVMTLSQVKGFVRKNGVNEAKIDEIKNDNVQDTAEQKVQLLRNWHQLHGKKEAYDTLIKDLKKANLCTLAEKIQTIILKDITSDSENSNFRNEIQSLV
Put plainly: Two-hybrid test (FIG. 1), binding of MORT-1 fragments to FAS-IC. An excerpt: (§1) To isolate proteins interacting with the intracellular domain of the FAS-R, the yeast two-hybrid system was used (Fields and Song, 1989). […] In this system, the genes for the candidate interacting proteins are cloned into separate expression vectors. In one expression vector, the sequence of the one candidate protein is cloned in phase with the sequence of the GAL4 DNA-binding domain to generate a hybrid protein with the GAL4 DNA-binding-domain, and in the other vector, the sequence of the second candidate protein is cloned in phase with the sequence of the GAL4 activation domain to generate a hybrid protein with the GAL4-activation domain. The two hybrid vectors are then co-transformed into a yeast host strain having a lacZ or HIS3 reporter gene under the control of upstream GAL4 binding sites. Only those transformed host cells (cotransformants) in which the two hybrid proteins are expressed and are capable of interacting with each other, will be capable of expressing the reporter gene. In the case of the lacZ reporter gene, host cells expressing this gene will become blue in color when X-gal is added to the cultures. […]
(§2) In FIG. 1, there is depicted the interaction of the proteins encoded by the Gal4 DNA binding domain and activation-domain constructs (pGBT9 and pGAD-GH) within transfected SFY526 yeasts as assessed by β-galactosidase expression filter assay. […]

For test [1], the system named is FAS-R mediated cell death in HeLa cells. Put plainly: Anti-FAS-R antibody (CH-11) induced death of HeLa cells co-expressing FAS-R, neutral-red uptake. The test is classed as cell-based. Conditions: co-expression with human FAS-R in HeLa HtTA-1; CH-11 antibody plus 10 μg/ml cycloheximide. From the text: In another set of experiments to analyze the region of the MORT-1 protein involved in the binding to the FAS-IC, the following proteins were expressed transiently in HeLa cells that contain a tetracycline-controlled transactivator (HtTA-1), using a tetracycline-controlled expression vector (pUHD10-3): Human FAS-R alone; Human FAS-R as well as the N-terminal part of MORT-1 (amino acids 1-117, the “MORT-1 head”); Human FAS-R as well as the C-terminal part of MORT-1, which contains its ‘death domain’ homology region (amino acids 130-245, the “MORT-1 DD”); FLAG-55.11 (amino acids 309-900 of protein 55.11 fused at the N-terminus to the FLAG octapeptide, the protein 55.11 being a p55-IC-specific binding protein. Twelve hours after transfection, the cells were trypsinized and re-seeded at a concentration of 30,000 cells/well. After 24 hrs further incubation, the cells were treated for 6 hrs with a monoclonal antibody against the extracellular domain of FAS-R (monoclonal antibody CH-11, Oncor, Gaithersburg, Md., USA) at various concentrations (0.001-10 μg/ml monoclonal antibody), in the presence of 10 μg/ml cycloheximide. Cell viability was then determined by the neutral-red uptake assay and the results were presented in terms of % viable cells as compared to cells that had been incubated with cycloheximide alone (in the absence of anti-FAS-R monoclonal antibody CH-11). […]

For another test, the target named is T2, MORT-1 (Homo sapiens, UniProt Q13158, G32V).
T2 sequence (Q13158 with tags, fused parts or gaps G32V): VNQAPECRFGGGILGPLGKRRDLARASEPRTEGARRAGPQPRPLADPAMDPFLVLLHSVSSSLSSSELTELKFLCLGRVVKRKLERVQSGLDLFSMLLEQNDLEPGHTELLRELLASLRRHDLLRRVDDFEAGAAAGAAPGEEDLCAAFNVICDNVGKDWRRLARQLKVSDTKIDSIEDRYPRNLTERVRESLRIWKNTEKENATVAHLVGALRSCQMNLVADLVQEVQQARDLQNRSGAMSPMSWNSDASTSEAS
Put plainly: Two-hybrid test (FIG. 1), binding to full-length MORT-1. Details: expressed in transfected cells; host or cells: SFY526 yeast. From the text:
To isolate proteins interacting with the intracellular domain of the FAS-R, the yeast two-hybrid system was used (Fields and Song, 1989). […] In this system, the genes for the candidate interacting proteins are cloned into separate expression vectors. In one expression vector, the sequence of the one candidate protein is cloned in phase with the sequence of the GAL4 DNA-binding domain to generate a hybrid protein with the GAL4 DNA-binding-domain, and in the other vector, the sequence of the second candidate protein is cloned in phase with the sequence of the GAL4 activation domain to generate a hybrid protein with the GAL4-activation domain. The two hybrid vectors are then co-transformed into a yeast host strain having a lacZ or HIS3 reporter gene under the control of upstream GAL4 binding sites. Only those transformed host cells (cotransformants) in which the two hybrid proteins are expressed and are capable of interacting with each other, will be capable of expressing the reporter gene. In the case of the lacZ reporter gene, host cells expressing this gene will become blue in color when X-gal is added to the cultures.
(b) retransforming the plasmid DNA and original FAS-IC hybrid plasmid and control plasmids described in (a) into yeast host cells of strain SFY526 and determining the LACZ^+ activity (effectivity of β-gal formation, i.e., blue color formation).
In FIG. 1, there is depicted the interaction of the proteins encoded by the Gal4 DNA binding domain and activation-domain constructs (pGBT9 and pGAD-GH) within transfected SFY526 yeasts as assessed by β-galactosidase expression filter assay. The DNA-binding-domain constructs included four constructs of the human Fas-IC, four constructs of the mouse Fas-IC including two full-length constructs having […] or Ile to Ala replacement mutations at position 225 (I225N and I225A, respectively), and three MORT-1 constructs, all of which are shown schematically on the left hand side of FIG. 1. […]

Test [2] deals with fragment of MORT-1 corresponding to residues 1-117. Put plainly: Two-hybrid test (FIG. 1), binding to MORT-1 residues 1-117.
Excerpt: as §1, §2

B1: fragment of MORT-1 corresponding to residues 1-117: N-terminal part of MORT-1, amino acids 1-117 (protein)
chain: VNQAPECRFGGGILGPLGKRRDLARASEPRTEGARRAGPQPRPLADPAMDPFLVLLHSVSSSLSSSELTELKFLCLGRVVKRKLERVQSGLDLFSMLLEQNDLEPGHTELLRELLAS
As to B1, the “binding to FAS-IC / FAS-R in two-hybrid test” value with FAS-IC is “does not bind”. For the same molecule, the “effect on FAS-induced (FAS-R mediated) cell death” value in test [1] is listed as “does not interfere”. Further, in the test with MORT-1, the “binding to full-length MORT-1 in two-hybrid test” value is given as “binds”. The “binding to MORT-1 residues 1-117 in two-hybrid test” value in test [2] is listed as “does not bind”.
